Laboratory results as given in PMC6611904, “The transcription factor OsSUF4 interacts with SDG725 in promoting H3K36me3 establishment”.

Experiments:
OsSUF4 ZF K36A = OsSUF4 ZF K36A (Oryza sativa, UniProt Q653D5 10-100, K36A); assay: ITC; ITC: 100 mM NaCl, 20 mM Tris-HCl pH 8.0, 25 C, 2 mM protein into 0.1 mM DNA; EMSA: LightShift kit binding buffer, 5 ug protein, 0.02 uM probe, poly(dI-dC), 25 C 30 min, 5% PAGE; settings: protein: recombinant; tags: pET28-SUMO; Ni column; blunt
OsSUF4 ZF K33A = OsSUF4 ZF K33A (Oryza sativa, UniProt Q653D5 10-100, K33A); assay: as above; settings: protein: recombinant; tags: pET28-SUMO; Ni column; blunt
OsSUF4 ZF K33A, sequence (Q653D5 entry or part of it K33A | K33A K33A): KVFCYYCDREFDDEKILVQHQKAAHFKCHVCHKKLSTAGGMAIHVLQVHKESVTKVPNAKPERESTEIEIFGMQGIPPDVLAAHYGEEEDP

[1] = molecular target: OsSUF4 zinc finger domain WT (Oryza sativa, UniProt Q653D5 10-100); assay: as above; settings: protein: recombinant; tags: pET28-SUMO; Ni column; blunt
OsSUF4 zinc finger domain WT, sequence (Q653D5 entry or part of it): as the sequence (Q653D5 entry or part of it K33A | K33A K33A) above, with A24K counted along it

OsSUF4 ZF K31A = OsSUF4 ZF K31A (Oryza sativa, UniProt Q653D5 10-100, K31A); assay: as above; settings: protein: recombinant; tags: pET28-SUMO; Ni column; blunt
OsSUF4 ZF K31A, sequence (Q653D5 entry or part of it K31A | K31A K31A): as the sequence (Q653D5 entry or part of it K33A | K33A K33A) above, with K22A, A24K counted along it

OsSUF4 ZF K43A = OsSUF4 ZF K43A (Oryza sativa, UniProt Q653D5 10-100, K43A); assay: as above; settings: protein: recombinant; tags: pET28-SUMO; Ni column; blunt
OsSUF4 ZF K43A, sequence (Q653D5 entry or part of it K43A | K43A K43A): as the sequence (Q653D5 entry or part of it K33A | K33A K33A) above, with A24K, K34A counted along it

OsSUF4 ZF K24A = OsSUF4 ZF K24A (Oryza sativa, UniProt Q653D5 10-100, K24A); assay: as above; settings: protein: recombinant; tags: pET28-SUMO; Ni column; blunt
OsSUF4 ZF K24A, sequence (Q653D5 entry or part of it K24A | K24A K24A): as the sequence (Q653D5 entry or part of it K33A | K33A K33A) above, with K15A, A24K counted along it

OsSUF4 ZF 4m = OsSUF4 ZF 4m (Oryza sativa, UniProt Q653D5 10-100, R18A;K33A;K36A;K43A); assay: as above; settings: protein: recombinant; tags: pET28-SUMO; Ni column; blunt
OsSUF4 ZF 4m, sequence (Q653D5 entry or part of it R18A;K33A;K36A;K43A): as the sequence (Q653D5 entry or part of it K33A | K33A K33A) above, with R9A, K27A, K34A counted along it

OsSUF4 ZF R18A = OsSUF4 ZF R18A (Oryza sativa, UniProt Q653D5 10-100, R18A); assay: as above; settings: protein: recombinant; tags: pET28-SUMO; Ni column; blunt
OsSUF4 ZF R18A, sequence (Q653D5 entry or part of it R18A | R18A R18A): as the sequence (Q653D5 entry or part of it K33A | K33A K33A) above, with R9A, A24K counted along it

His-OsSUF4N = His-OsSUF4N (Oryza sativa, UniProt Q653D5 1-105); assay: EMSA; ITC: 100 mM NaCl, 20 mM Tris-HCl pH 8.0, 25 C, 2 mM protein into 0.1 mM DNA; EMSA: LightShift kit binding buffer, 5 ug protein, 0.02 uM probe, poly(dI-dC), 25 C 30 min, 5% PAGE; settings: protein: recombinant; tags: His (pET32a)
His-OsSUF4N, sequence (Q653D5 entry or part of it): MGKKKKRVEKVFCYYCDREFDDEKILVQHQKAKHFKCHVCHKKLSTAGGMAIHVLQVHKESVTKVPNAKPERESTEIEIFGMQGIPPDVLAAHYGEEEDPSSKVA

His-AtSUF4 (full length) = His-AtSUF4 (full length) (Arabidopsis thaliana, UniProt Q9C5G0 1-367); assay: as above; settings: protein: recombinant; tags: His (pET32a)
His-AtSUF4 (full length), sequence (Q9C5G0 whole entry): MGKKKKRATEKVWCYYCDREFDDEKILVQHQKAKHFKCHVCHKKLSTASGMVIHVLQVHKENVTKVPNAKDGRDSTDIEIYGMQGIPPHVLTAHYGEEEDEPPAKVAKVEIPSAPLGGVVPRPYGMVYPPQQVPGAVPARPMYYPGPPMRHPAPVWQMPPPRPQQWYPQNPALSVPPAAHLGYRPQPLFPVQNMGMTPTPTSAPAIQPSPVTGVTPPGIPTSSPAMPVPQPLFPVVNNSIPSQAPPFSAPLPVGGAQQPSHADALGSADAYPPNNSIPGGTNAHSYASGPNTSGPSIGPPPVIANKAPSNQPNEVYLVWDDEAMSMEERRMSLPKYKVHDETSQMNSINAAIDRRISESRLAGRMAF

OsSUF4 ZF K36A, sequence (Q653D5 entry or part of it K36A | K36A K36A): as the sequence (Q653D5 entry or part of it K33A | K33A K33A) above, with A24K, K27A counted along it

Binder | binding result (His-OsSUF4N) | further results
ITC 16-bp DNA (dsDNA) DNA 1: GGGTACGGAAATGGTA DNA 2: TACCATTTCCGTACCC | – | binding result (OsSUF4 ZF K36A): no binding; binding result (OsSUF4 ZF K33A): no binding; Kd [1]: 51.3 ± 3.68 µM; binding result (OsSUF4 ZF K31A): no binding; binding result (OsSUF4 ZF K43A): no binding; binding result (OsSUF4 ZF K24A): no binding; binding result (OsSUF4 ZF 4m): no binding; binding result (OsSUF4 ZF R18A): no binding
Hd3a-mu8 (dsDNA) DNA 1: ACAGTTAACTAACGGCCTAAGGGGGGTATAAA DNA 2: TTTATACCCCCCTTAGGCCGTTAGTTAACTGT | no binding | –
RFT1-WT (dsDNA) DNA 1: AGTATGAGTTTTGGAATCGGAAATATACCGAAC DNA 2: GTTCGGTATATTTCCGATTCCAAAACTCATACT | binds | –
Os02g08490 probe (dsDNA) DNA 1: AGACCGTCGATTCGGAAATAAACGGGCCGG DNA 2: CCGGCCCGTTTATTTCCGAATCGACGGTCT | binds | –
Os05g48810 probe (dsDNA) DNA 1: TATATTCAATGTCGGAAATCATTCCCGTAC DNA 2: GTACGGGAATGATTTCCGACATTGAATATA | binds | –
Os04g49660 probe (dsDNA) DNA 1: AGGACTAATTCGGAAATCTCCCCTTCCCGT DNA 2: ACGGGAAGGGGAGATTTCCGAATTAGTCCT | binds | –
Os06g06490 probe (dsDNA) DNA 1: ATATTTTTTCGCGGAAATTCGGTCTTCACT DNA 2: AGTGAAGACCGAATTTCCGCGAAAAAATAT | binds | –
Os09g31486 probe (dsDNA) DNA 1: CCACCGAAATGACGGAAATGCCCCTGGCCG DNA 2: CGGCCAGGGGCATTTCCGTCATTTCGGTGG | binds | –
Os12g21784 probe (dsDNA) DNA 1: CTTTCTCTTCGGAAATATAAATATATACCC DNA 2: GGGTATATATTTATATTTCCGAAGAGAAAG | binds | –
Os12g01760 probe (dsDNA) DNA 1: ATCATTTTTTCGGAAATATACAAATGCTGA DNA 2: TCAGCATTTGTATATTTCCGAAAAAATGAT | binds | –
Hd3a-e (Hd3a-WT) (dsDNA) DNA 1: ACAGTTAACTAACGGTACGGAAATGGTATAAA DNA 2: TTTATACCATTTCCGTACCGTTAGTTAACTGT | – | binding result (His-AtSUF4 (full length)): no binding
